# According to patent US20230083273A1 (TRUSTEES OF INDIANA UNIVERSITY, published 2023):
# Where a chain is given by its changes, count along the chain named. Names and notes keep the numbering of the source.
# T1: HBV Cp150 homodimer (hepatitis B virus (HBV), UniProt P03147 1-149)
# T1 chain: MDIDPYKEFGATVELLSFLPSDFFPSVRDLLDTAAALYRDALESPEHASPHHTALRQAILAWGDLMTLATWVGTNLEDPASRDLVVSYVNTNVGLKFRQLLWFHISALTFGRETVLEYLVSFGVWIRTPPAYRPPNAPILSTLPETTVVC
# B1: HBV Cp149Y132A monomer (Cp149-Y132A half-dimer) (other)
# chain: MDIDPYKEFGATVELLSFLPSDFFPSVRDLLDTAAALYRDALESPEHCSPHHTALRQAILCWGDLMTLATWVGTNLEDPASRDLVVSYVNTNVGLKFRQLLWFHISCLTFGRETVLEYLVSFGVWIRTPPAARPPNAPILSTLPETTVV
# B2: heterodimer Cp149HisCp149Y132A (other)
# chain 1: MDIDPYKEFGATVELLSFLPSDFFPSVRDLLDTAAALYRDALESPEHCSPHHTALRQAILCWGDLMTLATWVGTNLEDPASRDLVVSYVNTNVGLKFRQLLWFHISCLTFGRETVLEYLVSFGVWIRTPPAYRPPNAPILSTLPETTVVHHHHHH
# chain 2: B1 chain
# notes: also called Cp149His6Cp149Y132A; asymmetric heterodimer
# B3: HBV Cp149 homodimer (wild-type assembly domain) (other)
# chain: B1 chain with A132Y
# notes: also called wild-type homodimer Cp149
# B4: Cp149HisCp149Y132A hexamer (hexamer of heterodimers assembled with Ni2+) (other)
# chain 1: B2 chain 1
# chain 2: B1 chain
# notes: also called heterodimer hexamer; hexamers
# How the values were obtained:
# [1] = biological target: T2, HBV Cp149His monomer (Cp149-6xHis half-dimer) (hepatitis B virus (HBV), UniProt P03147 1-149); experiment: native mass spectrometry of the purified co-expressed protein; also a single SEC peak at the dimer position and about equal SDS-PAGE bands
# T2 construct: also called Cp149His6; CpHis monomer
# [2] = biological target: the molecule itself; experiment: Ni2+-driven assembly (10 uM heterodimer, 100 uM NiCl2, low ionic strength); SEC, CDMS, negative-stain EM
# HBV Cp150 homodimer [3] = biological target: T1, HBV Cp150 homodimer; experiment: negative-stain EM
# [4] = biological target: the molecule itself; experiment: SEC of capsid assembly at 300 mM NaCl
# HBV Cp150 homodimer [5] = biological target: T1, HBV Cp150 homodimer; experiment: co-assembly at 300 mM NaCl, SEC
binder,measurement,setting,value
B1,binding result,[1],binds
B2,binding result,[2],binds
same,binding result,HBV Cp150 homodimer [3],binds
B3,binding result,[4],binds
B4,binding result,HBV Cp150 homodimer [5],binds
